# Numbered stars: 1 amine (or outer) side, 2 acyl side, 3 side chain; on linkers, the order of the positions; unused ones are H or OH. Bridge positions count the residues as written; N and C are the ends. Square brackets hold non-standard residues; d marks the D form. Side chains are listed from the residue outwards. Ends that are not written are not given here. * marks the point of attachment. C18 diacid = O=C(O)CCCCCCCCCCCCCCCCC(=O)*; γGlu = O=C(O)[C@H](CCC(=O)[*:2])N[*:1]; Aib = CC(C)(N)C(=O)O
# T1: rat calcitonin receptor (rat, UniProt P32214 25-516)
# T1 sequence (looked up): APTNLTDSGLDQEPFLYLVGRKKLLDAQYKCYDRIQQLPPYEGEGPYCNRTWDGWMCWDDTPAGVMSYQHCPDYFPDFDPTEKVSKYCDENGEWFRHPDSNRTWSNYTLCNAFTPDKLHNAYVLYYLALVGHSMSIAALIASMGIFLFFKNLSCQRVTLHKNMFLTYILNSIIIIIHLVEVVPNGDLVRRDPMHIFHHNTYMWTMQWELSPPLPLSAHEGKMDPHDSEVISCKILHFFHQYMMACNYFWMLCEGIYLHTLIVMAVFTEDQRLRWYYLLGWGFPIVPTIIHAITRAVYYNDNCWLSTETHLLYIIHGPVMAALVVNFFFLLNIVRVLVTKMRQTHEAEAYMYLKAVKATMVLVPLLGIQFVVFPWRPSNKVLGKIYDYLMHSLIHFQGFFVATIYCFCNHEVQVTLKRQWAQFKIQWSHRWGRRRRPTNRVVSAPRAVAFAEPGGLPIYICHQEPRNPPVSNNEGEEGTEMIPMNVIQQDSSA
# T2: rat amylin receptor (calcitonin receptor co-expressed with receptor activity modifying protein, RAMP3) (rat, UniProt P32214 25-516; Q9JJ73 23-147)
# T2 sequence (looked up) 1: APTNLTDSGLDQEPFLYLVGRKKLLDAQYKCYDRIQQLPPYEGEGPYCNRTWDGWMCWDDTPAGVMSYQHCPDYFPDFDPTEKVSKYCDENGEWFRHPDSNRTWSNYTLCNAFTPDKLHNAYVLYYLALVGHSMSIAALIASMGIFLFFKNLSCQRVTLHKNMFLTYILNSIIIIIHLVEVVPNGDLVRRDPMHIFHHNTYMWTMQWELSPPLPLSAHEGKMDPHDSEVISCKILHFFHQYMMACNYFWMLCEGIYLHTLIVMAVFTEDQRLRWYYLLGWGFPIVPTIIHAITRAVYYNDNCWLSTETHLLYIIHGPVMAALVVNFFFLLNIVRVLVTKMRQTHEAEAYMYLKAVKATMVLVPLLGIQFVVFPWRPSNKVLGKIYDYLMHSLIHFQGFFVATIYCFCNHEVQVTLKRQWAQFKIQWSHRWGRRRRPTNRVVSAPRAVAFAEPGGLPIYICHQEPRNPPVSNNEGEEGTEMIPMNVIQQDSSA
# T2 sequence (looked up) 2: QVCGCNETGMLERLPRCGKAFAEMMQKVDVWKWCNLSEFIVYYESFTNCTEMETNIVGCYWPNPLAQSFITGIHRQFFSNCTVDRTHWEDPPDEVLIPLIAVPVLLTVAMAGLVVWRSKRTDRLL
# T3: human calcitonin receptor (human, UniProt P30988 25-474)
# T3 sequence (looked up): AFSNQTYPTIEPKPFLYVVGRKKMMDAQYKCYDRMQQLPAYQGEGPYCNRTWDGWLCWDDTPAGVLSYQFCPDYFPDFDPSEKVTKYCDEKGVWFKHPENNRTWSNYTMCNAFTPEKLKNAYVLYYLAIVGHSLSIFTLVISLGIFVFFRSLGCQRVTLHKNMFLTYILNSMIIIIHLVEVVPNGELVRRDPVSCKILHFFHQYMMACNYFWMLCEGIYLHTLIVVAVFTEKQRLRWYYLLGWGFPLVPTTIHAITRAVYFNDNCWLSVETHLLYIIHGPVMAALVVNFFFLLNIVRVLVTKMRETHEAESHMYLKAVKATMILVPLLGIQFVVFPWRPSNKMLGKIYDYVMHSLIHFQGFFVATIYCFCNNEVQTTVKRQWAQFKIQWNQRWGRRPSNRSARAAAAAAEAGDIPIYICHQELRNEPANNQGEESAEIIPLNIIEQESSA
# T4: human amylin receptor (calcitonin receptor co-expressed with receptor activity modifying protein, RAMP3) (human, UniProt P30988 25-474; O60896 24-148)
# T4 sequence (looked up) 1: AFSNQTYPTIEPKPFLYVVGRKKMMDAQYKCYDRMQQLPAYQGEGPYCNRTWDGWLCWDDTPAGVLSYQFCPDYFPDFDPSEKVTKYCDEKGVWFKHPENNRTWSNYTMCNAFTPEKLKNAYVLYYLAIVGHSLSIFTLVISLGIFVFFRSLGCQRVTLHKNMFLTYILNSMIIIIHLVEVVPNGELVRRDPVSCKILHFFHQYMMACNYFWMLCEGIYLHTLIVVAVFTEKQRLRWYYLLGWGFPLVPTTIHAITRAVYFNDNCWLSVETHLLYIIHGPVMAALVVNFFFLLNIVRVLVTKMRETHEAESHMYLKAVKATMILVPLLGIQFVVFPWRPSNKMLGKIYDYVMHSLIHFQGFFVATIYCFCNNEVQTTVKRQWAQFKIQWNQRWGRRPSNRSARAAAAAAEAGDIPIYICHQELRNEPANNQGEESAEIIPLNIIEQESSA
# T4 sequence (looked up) 2: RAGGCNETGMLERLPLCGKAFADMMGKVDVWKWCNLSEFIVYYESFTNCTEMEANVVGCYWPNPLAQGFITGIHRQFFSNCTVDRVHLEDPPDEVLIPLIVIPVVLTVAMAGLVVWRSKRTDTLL
# Experiments:
# Assay in all cases: cell-based or functional assay
# rat calcitonin receptor = target: T1, rat calcitonin receptor
# [1] = target: T2, rat amylin receptor (calcitonin …)
# [2] = target: T3, human calcitonin receptor
# [3] = target: T4, human amylin receptor (calcitonin …)
Binder,EC50 (cAMP production) (rat calcitonin receptor) [nM],EC50 (cAMP production) [1] [nM],EC50 (cAMP production) [2] [nM],EC50 (cAMP production) [3] [nM],Ratio (EC50 hCTR / EC50 hAMYR3) [3]
K([γGlu-C18 diacid])KCNTATCATQRLAEFLVHSS[Aib]NFGPILPPTNVGSNTY-NH2 (disulfide 3-8; N-terminus assumed; SMILES CC[C@H](C)[C@H](NC(=O)[C@@H]1CCCN1C(=O)CNC(=O)[C@H](Cc1ccccc1)NC(=O)[C@H](CC(N)=O)NC(=O)C(C)(C)NC(=O)[C@H](CO)NC(=O)[C@H](CO)NC(=O)[C@H](Cc1c[nH]cn1)NC(=O)[C@@H](NC(=O)[C@H](CC(C)C)NC(=O)[C@H](Cc1ccccc1)NC(=O)[C@H](CCC(=O)O)NC(=O)[C@H](C)NC(=O)[C@H](CC(C)C)NC(=O)[C@H](CCCNC(=N)N)NC(=O)[C@H](CCC(N)=O)NC(=O)[C@@H](NC(=O)[C@H](C)NC(=O)[C@@H]1CSSC[C@H](NC(=O)[C@H](CCCCN)NC(=O)[C@@H](N)CCCCNC(=O)CC[C@H](NC(=O)CCCCCCCCCCCCCCCCC(=O)O)C(=O)O)C(=O)N[C@@H](CC(N)=O)C(=O)N[C@@H]([C@@H](C)O)C(=O)N[C@@H](C)C(=O)N[C@@H]([C@@H](C)O)C(=O)N1)[C@@H](C)O)C(C)C)C(=O)N[C@@H](CC(C)C)C(=O)N1CCC[C@H]1C(=O)N1CCC[C@H]1C(=O)N[C@H](C(=O)N[C@@H](CC(N)=O)C(=O)N[C@H](C(=O)NCC(=O)N[C@@H](CO)C(=O)N[C@@H](CC(N)=O)C(=O)N[C@H](C(=O)N[C@@H](Cc1ccc(O)cc1)C(N)=O)[C@@H](C)O)C(C)C)[C@@H](C)O) [Peptide 38 (SEQ ID NO: 38)],0.0203,0.0051,1.05,0.19,6
K([γGlu-C18 diacid])KCNTATCATQRLANFLVHSS[Aib]NFGPILPPTEVGSNTY-NH2 (disulfide 3-8; N-terminus assumed; SMILES CC[C@H](C)[C@H](NC(=O)[C@@H]1CCCN1C(=O)CNC(=O)[C@H](Cc1ccccc1)NC(=O)[C@H](CC(N)=O)NC(=O)C(C)(C)NC(=O)[C@H](CO)NC(=O)[C@H](CO)NC(=O)[C@H](Cc1c[nH]cn1)NC(=O)[C@@H](NC(=O)[C@H](CC(C)C)NC(=O)[C@H](Cc1ccccc1)NC(=O)[C@H](CC(N)=O)NC(=O)[C@H](C)NC(=O)[C@H](CC(C)C)NC(=O)[C@H](CCCNC(=N)N)NC(=O)[C@H](CCC(N)=O)NC(=O)[C@@H](NC(=O)[C@H](C)NC(=O)[C@@H]1CSSC[C@H](NC(=O)[C@H](CCCCN)NC(=O)[C@@H](N)CCCCNC(=O)CC[C@H](NC(=O)CCCCCCCCCCCCCCCCC(=O)O)C(=O)O)C(=O)N[C@@H](CC(N)=O)C(=O)N[C@@H]([C@@H](C)O)C(=O)N[C@@H](C)C(=O)N[C@@H]([C@@H](C)O)C(=O)N1)[C@@H](C)O)C(C)C)C(=O)N[C@@H](CC(C)C)C(=O)N1CCC[C@H]1C(=O)N1CCC[C@H]1C(=O)N[C@H](C(=O)N[C@@H](CCC(=O)O)C(=O)N[C@H](C(=O)NCC(=O)N[C@@H](CO)C(=O)N[C@@H](CC(N)=O)C(=O)N[C@H](C(=O)N[C@@H](Cc1ccc(O)cc1)C(N)=O)[C@@H](C)O)C(C)C)[C@@H](C)O) [Peptide 41 (SEQ ID NO: 41)],0.925,0.0082,1.18,0.178,7
K([γGlu-C18 diacid])KCNTATCATQRLANFLVHSS[Aib]NFGPILPPTHVGSNTY-NH2 (disulfide 3-8; N-terminus assumed; SMILES CC[C@H](C)[C@H](NC(=O)[C@@H]1CCCN1C(=O)CNC(=O)[C@H](Cc1ccccc1)NC(=O)[C@H](CC(N)=O)NC(=O)C(C)(C)NC(=O)[C@H](CO)NC(=O)[C@H](CO)NC(=O)[C@H](Cc1c[nH]cn1)NC(=O)[C@@H](NC(=O)[C@H](CC(C)C)NC(=O)[C@H](Cc1ccccc1)NC(=O)[C@H](CC(N)=O)NC(=O)[C@H](C)NC(=O)[C@H](CC(C)C)NC(=O)[C@H](CCCNC(=N)N)NC(=O)[C@H](CCC(N)=O)NC(=O)[C@@H](NC(=O)[C@H](C)NC(=O)[C@@H]1CSSC[C@H](NC(=O)[C@H](CCCCN)NC(=O)[C@@H](N)CCCCNC(=O)CC[C@H](NC(=O)CCCCCCCCCCCCCCCCC(=O)O)C(=O)O)C(=O)N[C@@H](CC(N)=O)C(=O)N[C@@H]([C@@H](C)O)C(=O)N[C@@H](C)C(=O)N[C@@H]([C@@H](C)O)C(=O)N1)[C@@H](C)O)C(C)C)C(=O)N[C@@H](CC(C)C)C(=O)N1CCC[C@H]1C(=O)N1CCC[C@H]1C(=O)N[C@H](C(=O)N[C@@H](Cc1c[nH]cn1)C(=O)N[C@H](C(=O)NCC(=O)N[C@@H](CO)C(=O)N[C@@H](CC(N)=O)C(=O)N[C@H](C(=O)N[C@@H](Cc1ccc(O)cc1)C(N)=O)[C@@H](C)O)C(C)C)[C@@H](C)O) [Peptide 40 (SEQ ID NO: 40)],0.782,0.012,3.33,0.228,15

# More lines, now with the values ahead:
EC50 (cAMP production) (rat calcitonin receptor) [nM],EC50 (cAMP production) [1] [nM],EC50 (cAMP production) [2] [nM],EC50 (cAMP production) [3] [nM],Ratio (EC50 hCTR / EC50 hAMYR3) [3],Binder
2.24,0.0185,6.26,0.284,22,K([γGlu-C18 diacid])CNTATCATQRLANFLRHSS[Aib]NFGPILPPTEVGSNTY-NH2 (disulfide 2-7; N-terminus assumed; SMILES CC[C@H](C)[C@H](NC(=O)[C@@H]1CCCN1C(=O)CNC(=O)[C@H](Cc1ccccc1)NC(=O)[C@H](CC(N)=O)NC(=O)C(C)(C)NC(=O)[C@H](CO)NC(=O)[C@H](CO)NC(=O)[C@H](Cc1c[nH]cn1)NC(=O)[C@H](CCCNC(=N)N)NC(=O)[C@H](CC(C)C)NC(=O)[C@H](Cc1ccccc1)NC(=O)[C@H](CC(N)=O)NC(=O)[C@H](C)NC(=O)[C@H](CC(C)C)NC(=O)[C@H](CCCNC(=N)N)NC(=O)[C@H](CCC(N)=O)NC(=O)[C@@H](NC(=O)[C@H](C)NC(=O)[C@@H]1CSSC[C@H](NC(=O)[C@@H](N)CCCCNC(=O)CC[C@H](NC(=O)CCCCCCCCCCCCCCCCC(=O)O)C(=O)O)C(=O)N[C@@H](CC(N)=O)C(=O)N[C@@H]([C@@H](C)O)C(=O)N[C@@H](C)C(=O)N[C@@H]([C@@H](C)O)C(=O)N1)[C@@H](C)O)C(=O)N[C@@H](CC(C)C)C(=O)N1CCC[C@H]1C(=O)N1CCC[C@H]1C(=O)N[C@H](C(=O)N[C@@H](CCC(=O)O)C(=O)N[C@H](C(=O)NCC(=O)N[C@@H](CO)C(=O)N[C@@H](CC(N)=O)C(=O)N[C@H](C(=O)N[C@@H](Cc1ccc(O)cc1)C(N)=O)[C@@H](C)O)C(C)C)[C@@H](C)O) [Peptide 44 (SEQ ID NO: 44)]
3.65,0.0145,19,0.647,29,K([γGlu-C18 diacid])KCNTATCATQRLANFLRHSS[Aib]NFGPILPPTEVGSNTY-NH2 (disulfide 3-8; N-terminus assumed; SMILES CC[C@H](C)[C@H](NC(=O)[C@@H]1CCCN1C(=O)CNC(=O)[C@H](Cc1ccccc1)NC(=O)[C@H](CC(N)=O)NC(=O)C(C)(C)NC(=O)[C@H](CO)NC(=O)[C@H](CO)NC(=O)[C@H](Cc1c[nH]cn1)NC(=O)[C@H](CCCNC(=N)N)NC(=O)[C@H](CC(C)C)NC(=O)[C@H](Cc1ccccc1)NC(=O)[C@H](CC(N)=O)NC(=O)[C@H](C)NC(=O)[C@H](CC(C)C)NC(=O)[C@H](CCCNC(=N)N)NC(=O)[C@H](CCC(N)=O)NC(=O)[C@@H](NC(=O)[C@H](C)NC(=O)[C@@H]1CSSC[C@H](NC(=O)[C@H](CCCCN)NC(=O)[C@@H](N)CCCCNC(=O)CC[C@H](NC(=O)CCCCCCCCCCCCCCCCC(=O)O)C(=O)O)C(=O)N[C@@H](CC(N)=O)C(=O)N[C@@H]([C@@H](C)O)C(=O)N[C@@H](C)C(=O)N[C@@H]([C@@H](C)O)C(=O)N1)[C@@H](C)O)C(=O)N[C@@H](CC(C)C)C(=O)N1CCC[C@H]1C(=O)N1CCC[C@H]1C(=O)N[C@H](C(=O)N[C@@H](CCC(=O)O)C(=O)N[C@H](C(=O)NCC(=O)N[C@@H](CO)C(=O)N[C@@H](CC(N)=O)C(=O)N[C@H](C(=O)N[C@@H](Cc1ccc(O)cc1)C(N)=O)[C@@H](C)O)C(C)C)[C@@H](C)O) [Peptide 43 (SEQ ID NO: 43)]

# — patent US20220204580A1 (AstraZeneca / MedImmune, published 2022)
